{
  "source": "patent US20020039776",
  "target": "free histones (mixture of H1, H3, H2B, H2A and H4; Boehringer Mannheim)",
  "data": [
    {"protein": "GST-SUV39H1(82-412) (protein) CVRILKQFHKDLERELLRRHHRSKTPRHLDPSLANYLVQKAKQRRALRRWEQELNAKRSHLGRITVENEVDLDGPPRAFVYINEYRVGEGITLNQVAVGCECQDCLWAPTGGCCPGASLHKFAYNDQGQVRLRAGLPIYECNSRCRCGYDCPNRVVQKGIRYDLCIFRTDDGRGWGVRTLEKIRKNSFVMEYVGEIITSEEAERRGQIYDRQGATYLFDLDYVEDVYTVDAAYYGNISHFVNHSCDPNLQVYNVFIDNLDERLPRIAFFATRTIRAGEELTFDYNMQVDPVDMESTRMDSNFGLAGLPGSPKKRVRIECKCGTESCRKYLF", "values": [
      {"measurement": "HMTase activity", "result": "The SU(VAR)3-9 family members assayed, SUV39H1, Suv39h2 and CLR4, displayed HMTase activity."}
    ]},
    {"protein": "GST-CLR4(127-490) (protein) KQSTALTTNDTSIILDDSLHTNSKKLGKTRNEVKEESQKRELVSNSIKEATSPKTSSILTKPRNPSKLDSYTHLSFYEKRELFRKKLREIEGPEVTLVNEVDDEPCPSLDFQFISQYRLTQGVIPPDPNFQSGCNCSSLGGCDLNNPSRCECLDDLDEPTHFAYDAQGRVRADTGAVIYECNSFCSCSMECPNRVVQRGRTLPLEIFKTKEKGWGVRSLRFAPAGTFITCYLGEVITSAEAAKRDKNYDDDGITYLFDLDMFDDASEYTVDAQNYGDVSRFFNHSCSPNIAIYSAVRNHGFRTIYDLAFFAIKDIQPLEELTFDYAGAKDFSPVQSQKSQQNRISKLRRQCKCGSANCRGWLFG", "values": [
      {"measurement": "HMTase activity", "result": "The SU(VAR)3-9 family members assayed, SUV39H1, Suv39h2 and CLR4, displayed HMTase activity."}
    ]}
  ]
}
